This note sets out measurements from US20110076265A1 (POMONA RICERCA S R L, published 2011).

The test has as its target T1, HA protein (H1-subtype hemagglutinin) of influenza A virus A/California/04/2009 (influenza A virus A/California/04/2009 …, UniProt P26140 18-566).
T1 construct: also called H1 HA (A/California/04/2009)
Nature of the test: FACS on fixed HEK 293T cells transfected with HA construct, Fab49 at 10 µg/ml.

B1: Fab49 (human monoclonal Fab fragment produced by bacterial clone INF49) (Fab, V domains shown)
VH: LESGGGLVQPGGSLRLSCAASGITFSSYAMSWVRQAPGKGLEWVSTVNSGGGSTYYGDSVRGRFTISRDNSKSTLYLQLNSLRAEDTAIYYCAKDKGRPIFGLVTPSYYMDVWGNGT
VL: ELTQSPSSLSASVGDSVTITCRTSERISTYLNWYQQKPGKAPRLLVSGASTLQGGVPSRFSGSGSGTAFTLTINSLQPEDFATYYCQQSYSTPLTFGGGT
On to B1, for which the binding result is reported as “binds”.
